Laboratory results taken from patent publication US20150203577A1 (Chugai, published 2015).

T1: mouse FcγRII extracellular domain, C-terminal His tag (mouse, UniProt P08101 30-210)
T1 construct: also called mFcγRII; mFcgRII
T1 sequence: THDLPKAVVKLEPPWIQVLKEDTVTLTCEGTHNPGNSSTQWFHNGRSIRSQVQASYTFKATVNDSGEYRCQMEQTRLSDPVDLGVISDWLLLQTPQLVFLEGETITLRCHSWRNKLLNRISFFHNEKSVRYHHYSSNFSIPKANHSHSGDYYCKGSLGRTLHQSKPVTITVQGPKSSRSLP

T2: mouse FcγRIII extracellular domain, C-terminal His tag (mouse, UniProt P08508 31-215)
T2 construct: also called mFcγRIII; mFcgRIII
T2 chain: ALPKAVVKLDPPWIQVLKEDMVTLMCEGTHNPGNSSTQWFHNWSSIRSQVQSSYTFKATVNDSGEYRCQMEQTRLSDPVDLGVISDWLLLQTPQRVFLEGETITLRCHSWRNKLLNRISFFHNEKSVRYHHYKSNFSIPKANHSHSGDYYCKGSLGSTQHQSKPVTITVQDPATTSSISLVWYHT


What was measured:
[1] = molecular target: T1, mouse FcγRII extracellular domain, …; assay: SPR (Biacore T200), antibody captured on Protein L, mFcγR analyte
Method: (§1) Each altered antibody was analyzed for its interaction with each Fcγ receptor prepared above using Biacore T100 (GE Healthcare Japan Corp.), Biacore T200 (GE Healthcare Japan Corp.), Biacore A100, or Biacore 4000. The running buffer used was HBS-EP+ (GE Healthcare Japan Corp.). The assay temperature was set to 25° C. The sensor chips used were chips prepared by immobilizing Protein L (ACTIGEN or BioVision) onto Series S Sensor Chip CM5 (GE Healthcare Japan Corp.) or Series S Sensor Chip CM4 (GE Healthcare Japan Corp.) by the amine coupling method.
(§2) In order to calculate the KD value of each altered antibody for FcγR, kinetic analysis was conducted according to the following method: first, the antibody of interest was captured onto any of these chips and allowed to interact with mFcγR diluted with a running buffer. For the obtained sensorgram, the assay results were globally fit into the 1:1 Langmuir binding model using Biacore Evaluation Software to calculate an association rate constant ka (L/mol/s) and a dissociation rate constant kd (1/s). From these values, the dissociation constant KD (mol/L) was calculated.

[2] = molecular target: T2, mouse FcγRIII extracellular domain, …; assay: as above
Method: as §1, §2

Binder	Kd [1]	relative mFcγRII-binding activity (mIgG1 = 1) [1]	Kd [2]	relative mFcγRIII-binding activity (mIgG1 = 1) [2]
H237-MB750/MRAL-k0 (antibody, mouse IgG1, kappa, copies: 2 + 2) heavy: QVQLQESGPGLVKPSETLSLTCAVSGHSISHDHAWSWVRQPPGEGLEWIGFISYSGITNYNPSLQGRVTISRDNSKNTLYLQMNSLRAEDTAVYYCARSLARTTAMDYWGEGTLVTVSSAKTTPPSVYPLAPGSAAQTNSMVTLGCLVKGYFPEPVTVTWNSGSLSSGVHTFPAVLQSDLYTLSSSVTVPSSTWPSETVTCNVAHPASSTKVDKKIVPRDCGCKPCICEPNEVELVFIFPPKPKDVLTITLTPKVTCVVVDISKDDPEVQFSWFVDDVEVHTAQTQPREEQFNSTFRSVSELPIMHQDWLNGKEFKCRVNSDAFPAPIEKTISKTKGRPKAPQVYTIPPPKEQMAKDKVSLTCMITDFFPEDITVEWQWNGQPAENYKNTQPIMDTDGSYFVYSKLNVQKSNWEAGNTFTCSVLHEGLHNHHTEKSLSHSPGK light: not shown	7.13 nM	29.4 fold vs H237-mIgG1/MRAL-k0	705 nM	0.4 fold vs H237-mIgG1/MRAL-k0
H237-MB476/MRAL-k0 (antibody, mouse IgG1, kappa, copies: 2 + 2) heavy: QVQLQESGPGLVKPSETLSLTCAVSGHSISHDHAWSWVRQPPGEGLEWIGFISYSGITNYNPSLQGRVTISRDNSKNTLYLQMNSLRAEDTAVYYCARSLARTTAMDYWGEGTLVTVSSAKTTPPSVYPLAPGSAAQTNSMVTLGCLVKGYFPEPVTVTWNSGSLSSGVHTFPAVLQSDLYTLSSSVTVPSSTWPSETVTCNVAHPASSTKVDKKIVPRDCGCKPCICQPNEVEEVFIFPPKPKDVLTITLTPKVTCVVVDISKDDPEVQFSWFVDDVEVHTAQTQPREEQFNSTFRSVSELPIMHQDWLNGKEFKCRVNSAAFPAPIEKTISKTKGRPKAPQVYTIPPPKEQMAKDKVSLTCMITDFFPEDITVEWQWNGQPAENYKNTQPIMDTDGSYFVYSKLNVQKSNWEAGNTFTCSVLHEGLHNHHTEKSLSHSPGK light: not shown	0.804 nM	261 fold vs H237-mIgG1/MRAL-k0	107 nM	2.6 fold vs H237-mIgG1/MRAL-k0
H237-MB515/MRAL-k0 (antibody, mouse IgG1, kappa, copies: 2 + 2) heavy: QVQLQESGPGLVKPSETLSLTCAVSGHSISHDHAWSWVRQPPGEGLEWIGFISYSGITNYNPSLQGRVTISRDNSKNTLYLQMNSLRAEDTAVYYCARSLARTTAMDYWGEGTLVTVSSAKTTPPSVYPLAPGSAAQTNSMVTLGCLVKGYFPEPVTVTWNSGSLSSGVHTFPAVLQSDLYTLSSSVTVPSSTWPSETVTCNVAHPASSTKVDKKIVPRDCGCKPCICEPNEVEMVFIFPPKPKDVLTITLTPKVTCVVVDISKDDPEVQFSWFVDDVEVHTAQTQPREEQFNSTFRSVSELPIMHQDWLNGKEFKCRVNSAAFPAPIEKTISKTKGRPKAPQVYTIPPPKEQMAKDKVSLTCMITDFFPEDITVEWQWNGQPAENYKNTQPIMDTDGSYFVYSKLNVQKSNWEAGNTFTCSVLHEGLHNHHTEKSLSHSPGK light: not shown	1.53 nM	137 fold vs H237-mIgG1/MRAL-k0	214 nM	1.3 fold vs H237-mIgG1/MRAL-k0
H237-MB529/MRAL-k0 (antibody, mouse IgG1, kappa, copies: 2 + 2) heavy: QVQLQESGPGLVKPSETLSLTCAVSGHSISHDHAWSWVRQPPGEGLEWIGFISYSGITNYNPSLQGRVTISRDNSKNTLYLQMNSLRAEDTAVYYCARSLARTTAMDYWGEGTLVTVSSAKTTPPSVYPLAPGSAAQTNSMVTLGCLVKGYFPEPVTVTWNSGSLSSGVHTFPAVLQSDLYTLSSSVTVPSSTWPSETVTCNVAHPASSTKVDKKIVPRDCGCKPCICQPNEVEEVFIFPPKPKDVLTITLTPKVTCVVVDISKDDPEVQFSWFVDDVEVHTAQTQPREEQFNLTFRSVSELPIMHQDWLNGKEFKCRVNSAAFPAPIERTISKTKGRPKAPQVYTIPPPKEQMAKDKVSLTCMITDFFPEDITVEWQWNGQPAENYKNTQPIMDTDGSYFVYSKLNVQKSNWEAGNTFTCSVLHEGLHNHHTEKSLSHSPGK light: not shown	0.745 nM	282 fold vs H237-mIgG1/MRAL-k0	47.6 nM	5.9 fold vs H237-mIgG1/MRAL-k0
H237-MB527/MRAL-k0 (antibody, mouse IgG1, kappa, copies: 2 + 2) heavy: QVQLQESGPGLVKPSETLSLTCAVSGHSISHDHAWSWVRQPPGEGLEWIGFISYSGITNYNPSLQGRVTISRDNSKNTLYLQMNSLRAEDTAVYYCARSLARTTAMDYWGEGTLVTVSSAKTTPPSVYPLAPGSAAQTNSMVTLGCLVKGYFPEPVTVTWNSGSLSSGVHTFPAVLQSDLYTLSSSVTVPSSTWPSETVTCNVAHPASSTKVDKKIVPRDCGCKPCICQPNEVEEVFIFPPKPKDVLTITLTPKVTCVVVDISKDDPEVQFSWFVDDVEVHTAQTQPREEQFNLTFRSVSELPIMHQDWLNGKEFKCRVDSAAFPAPIEKTISKTKGRPKAPQVYTIPPPKEQMAKDKVSLTCMITDFFPEDITVEWQWNGQPAENYKNTQPIMDTDGSYFVYSKLNVQKSNWEAGNTFTCSVLHEGLHNHHTEKSLSHSPGK light: not shown	0.768 nM	273 fold vs H237-mIgG1/MRAL-k0	51 nM	5.5 fold vs H237-mIgG1/MRAL-k0
H237-MB530/MRAL-k0 (antibody, mouse IgG1, kappa, copies: 2 + 2) heavy: QVQLQESGPGLVKPSETLSLTCAVSGHSISHDHAWSWVRQPPGEGLEWIGFISYSGITNYNPSLQGRVTISRDNSKNTLYLQMNSLRAEDTAVYYCARSLARTTAMDYWGEGTLVTVSSAKTTPPSVYPLAPGSAAQTNSMVTLGCLVKGYFPEPVTVTWNSGSLSSGVHTFPAVLQSDLYTLSSSVTVPSSTWPSETVTCNVAHPASSTKVDKKIVPRDCGCKPCICQPNEVEEVFIFPPKPKDVLTITLTPKVTCVVVDISKDDPEVQFSWFVDDVEVHTAQTQPREEQFNSTFRSVSELPIMHQDWLNGKEFKCRVDSDAFPAPIEKTISKTKGRPKAPQVYTIPPPKEQMAKDKVSLTCMITDFFPEDITVEWQWNGQPAENYKNTQPIMDTDGSYFVYSKLNVQKSNWEAGNTFTCSVLHEGLHNHHTEKSLSHSPGK light: not shown	0.337 nM	623 fold vs H237-mIgG1/MRAL-k0	35.1 nM	8 fold vs H237-mIgG1/MRAL-k0

Further lines, results first:

Kd [1]	relative mFcγRII-binding activity (mIgG1 = 1) [1]	Kd [2]	relative mFcγRIII-binding activity (mIgG1 = 1) [2]	Binder
0.918 nM	229 fold vs H237-mIgG1/MRAL-k0	85 nM	3.3 fold vs H237-mIgG1/MRAL-k0	H237-MB531/MRAL-k0 (antibody, mouse IgG1, kappa, copies: 2 + 2) heavy: QVQLQESGPGLVKPSETLSLTCAVSGHSISHDHAWSWVRQPPGEGLEWIGFISYSGITNYNPSLQGRVTISRDNSKNTLYLQMNSLRAEDTAVYYCARSLARTTAMDYWGEGTLVTVSSAKTTPPSVYPLAPGSAAQTNSMVTLGCLVKGYFPEPVTVTWNSGSLSSGVHTFPAVLQSDLYTLSSSVTVPSSTWPSETVTCNVAHPASSTKVDKKIVPRDCGCKPCICQPNEVEEVFIFPPKPKDVLTITLTPKVTCVVVDISKDDPEVQFSWFVDDVEVHTAQTQPREEQFNSTFRSVSELPIMHQDWLNGKEFKCRVDSAAFPAPIERTISKTKGRPKAPQVYTIPPPKEQMAKDKVSLTCMITDFFPEDITVEWQWNGQPAENYKNTQPIMDTDGSYFVYSKLNVQKSNWEAGNTFTCSVLHEGLHNHHTEKSLSHSPGK light: not shown
0.534 nM	394 fold vs H237-mIgG1/MRAL-k0	39 nM	7.2 fold vs H237-mIgG1/MRAL-k0	H237-MB533/MRAL-k0 (antibody, mouse IgG1, kappa, copies: 2 + 2) heavy: QVQLQESGPGLVKPSETLSLTCAVSGHSISHDHAWSWVRQPPGEGLEWIGFISYSGITNYNPSLQGRVTISRDNSKNTLYLQMNSLRAEDTAVYYCARSLARTTAMDYWGEGTLVTVSSAKTTPPSVYPLAPGSAAQTNSMVTLGCLVKGYFPEPVTVTWNSGSLSSGVHTFPAVLQSDLYTLSSSVTVPSSTWPSETVTCNVAHPASSTKVDKKIVPRDCGCKPCICQPNEVEEVFIFPPKPKDVLTITLTPKVTCVVVDISKDDPEVQFSWFVDDVEVHTAQTQPREEQFNLTFRSVSELPIMHQDWLNGKEFKCRVDSDAFPAPIEKTISKTKGRPKAPQVYTIPPPKEQMAKDKVSLTCMITDFFPEDITVEWQWNGQPAENYKNTQPIMDTDGSYFVYSKLNVQKSNWEAGNTFTCSVLHEGLHNHHTEKSLSHSPGK light: not shown
0.639 nM	329 fold vs H237-mIgG1/MRAL-k0	45.4 nM	6.2 fold vs H237-mIgG1/MRAL-k0	H237-MB532/MRAL-k0 (antibody, mouse IgG1, kappa, copies: 2 + 2) heavy: QVQLQESGPGLVKPSETLSLTCAVSGHSISHDHAWSWVRQPPGEGLEWIGFISYSGITNYNPSLQGRVTISRDNSKNTLYLQMNSLRAEDTAVYYCARSLARTTAMDYWGEGTLVTVSSAKTTPPSVYPLAPGSAAQTNSMVTLGCLVKGYFPEPVTVTWNSGSLSSGVHTFPAVLQSDLYTLSSSVTVPSSTWPSETVTCNVAHPASSTKVDKKIVPRDCGCKPCICQPNEVEEVFIFPPKPKDVLTITLTPKVTCVVVDISKDDPEVQFSWFVDDVEVHTAQTQPREEQFNSTFRSVSELPIMHQDWLNGKEFKCRVNSDAFPAPIERTISKTKGRPKAPQVYTIPPPKEQMAKDKVSLTCMITDFFPEDITVEWQWNGQPAENYKNTQPIMDTDGSYFVYSKLNVQKSNWEAGNTFTCSVLHEGLHNHHTEKSLSHSPGK light: not shown
